This passage reports optical density results from patent US20210380703A1.

Substitutions are numbered along the chain they refer to.

B1: 374_E02 (antibody, V domains shown)
VH: EVQLLESGGGLVQPGGSLRLSCAASGFTFSSYSMNWVRQAPGKGLEWVSGINYNGGYTSYADSVKGRFTISRDNSKNTLYLQMNSLRAEDTAVYYCARSANWHDTALDYWGQGTLVTVSS
VL: DIQMTQSPSSLSASVGDRVTITCRASQSILSYLNWYQQKPGKAPKLLIYAATSLASGVPSRFSGSGSGTDFTLTISSLQPEDFATYYCQQSYDLPLTFGGGTKVEIK
B2: 374_F11 (antibody, V domains shown)
VH: B1 VH with S30D, G50N, S59G
VL: B1 VL with A51V, D93E, L94S
B3: 376_B05 (antibody, V domains shown)
VH: B1 VH with S49A, G50N, S59G
VL: B1 VL with L30I, L33V, L54R, D93E
B4: 374_H03 (antibody, V domains shown)
VH: B1 VH with S33G, G55S, T58K
VL: B1 VL with L33V, L47V, L54R, L94S
B5: 374_H09 (antibody, V domains shown)
VH: B1 VH with S49A, G50N, G55S, T58K
VL: B1 VL with L47V, A51V
B6: 374_E08 (antibody, V domains shown)
VH: B1 VH with S33G, S49A, T58K
VL: B1 VL with L54R, A55H
B7: 375_E07 (antibody, V domains shown)
VH: B1 VH with S31D, S49A, G55S, T58K, S59G
VL: B1 VL with L30V, S31T, A50V, A51V, S53N, L54R, A55E, D93E, L94T
B8: 374_E05 (antibody, V domains shown)
VH: B1 VH with S49A
VL: B1 VL with Y32F, L33V, L47V, L54R, D93N
B9: 374_F01 (antibody, V domains shown)
VH: B1 VH with S30D, G50N, S59G
VL: B1 VL with L33V, L47V, L54R, A55H, D93E, L94N
B10: 374_F04 (antibody, V domains shown)
VH: B1 VH with S33G, G55S, T58K
VL: B1 VL with S31T, L33V, L54R, D93N, L94S
B11: 375_H12 (antibody, V domains shown)
VH: B1 VH with S33G, S49A, T58K, S59G
VL: B1 VL with S31T, A50Y, A51V, S53N, L54R, A55Q, D93S, L94I
B12: 376_A04 (antibody, V domains shown)
VH: B1 VH with S30D, G50N
VL: B1 VL with L30V, S31T, L47V, L54R, L94S
B13: 374_G04 (antibody, V domains shown)
VH: B1 VH with S49A, S59G
VL: B1 VL with S31T, L47V, L94N
B14: 375_D04 (antibody, V domains shown)
VH: B1 VH with S30D, S31D, Y32S, N35H, G50N, S59G, R98K
VL: B1 VL with L33V, L47V, L54R, D93E
B15: 374_F02 (antibody, V domains shown)
VH: B1 VH with S30D, S49A, G50N, G55S
VL: B1 VL with L30V, T52S, A55Q, D93E
B16: 374_E11 (antibody, V domains shown)
VH: B1 VH with S33G, G50N
VL: B1 VL with L30V, S31T, L47V, L54R, L94S
B17: 374_G07 (antibody, V domains shown)
VH: B1 VH with G55S, T58K
VL: B1 VL with L30I, L54R, L94S
B18: 375_D12 (antibody, V domains shown)
VH: B1 VH with S30D, S33G, G50S, G55S
VL: B1 VL with S31T, L33V, L47V, L54R, D93E, L94T
B19: 375_D05 (antibody, V domains shown)
VH: B1 VH with S49A, G50S, G55S, A106H
VL: B1 VL with L30V, A55H, L94T
B20: 374_H06 (antibody, V domains shown)
VH: B1 VH with S33G, G50N, S59G
VL: B1 VL with L30V, L33V, L47V, L54R, D93N
B21: 375_D07 (antibody, V domains shown)
VH: B1 VH with S33G, S49A, G50N, G55S, S59G
VL: B1 VL with L30I, S31T, L54R, L94T
B22: 374_F10 (antibody, V domains shown)
VH: B1 VH
VL: B1 VL with L47V, L54R, L94N
B23: 376_A12 (antibody, V domains shown)
VH: B1 VH with S49A, G50N, G55S, T58K, S59G
VL: B1 VL with L33V, L47V, L54R, L94T
B24: 375_A05 (antibody, V domains shown)
VH: B1 VH with S33G, S49A, G50N, T58K, S59G
VL: B1 VL with L54R
B25: 376_B09 (antibody, V domains shown)
VH: B1 VH with S30D, S49A, G50N, G55S, T58K, S59G
VL: B1 VL with S31T, L33V, L47V, L54R
B26: 376_B04 (antibody, V domains shown)
VH: B1 VH with S30D, S33G, N35H, S49A, G50S, S59G
VL: B1 VL with L30V, L33V, L47V, L54R, L94T
B27: 376_A10 (antibody, V domains shown)
VH: B1 VH with S31D, S33G, G50N, G55S, T58K, S59G
VL: B1 VL with L54R, D93E, L94S
B28: 374_H04 (antibody, V domains shown)
VH: B1 VH with S30D, G55S
VL: B1 VL with S31T, L54R, L94N
B29: 374_H07 (antibody, V domains shown)
VH: B1 VH with S30D, S33G, S49A, G50N, S59G
VL: B1 VL with S31T, L54R, D93E, L94T
B30: 375_E01 (antibody, V domains shown)
VH: B1 VH with G55S, T58K
VL: B1 VL with S31T, L47V, L54R, Y92D, L94S
B31: 375_C06 (antibody, V domains shown)
VH: B1 VH with S30D, S31D, S33G, N35H, S49A, G50S, G55S
VL: B1 VL with S31T, L33V, L47V, A51T, L54R, L94S
B32: 374_G06 (antibody, V domains shown)
VH: B1 VH with S33G, N35H, S49A, G50S
VL: B1 VL with A51V, L54R

The target in the test is human Fc (human). In words: ELISA; negative control. A general note: In an ELISA, binding on a coated surface is turned into a signal by an enzyme label.
Molecule B1 showed an optical density of 0.527 OD.

B2: the optical density was 0.191 OD.

Turning to B3, the optical density was found to be 0.242 OD.

In turn, B4 showed an optical density of 0.162 OD.

As to B5, the optical density was 0.158 OD.

B6 displayed an optical density of 0.251 OD.

Molecule B7 registered an optical density of 0.158 OD.

B8 yielded an optical density of 0.244 OD.

For B9, the optical density worked out at 0.165 OD.

On to B10, for which the optical density was found to be 0.163 OD.

As to B11, the optical density turned out to be 0.188 OD.

As to B12, the optical density is 0.245 OD.

For B13, the optical density was determined as 0.161 OD.

In turn, B14 came in with an optical density of 0.182 OD.

With B15, the optical density was 0.169 OD.

The molecule B16 came in with an optical density of 0.186 OD.

B17 gave an optical density of 0.214 OD.

The molecule B18 returned an optical density of 0.193 OD.

The molecule B19 gave an optical density of 0.202 OD.

As to B20, the optical density came to 0.166 OD.

Take B21: the optical density was determined as 0.176 OD.

B22 had an optical density of 0.524 OD.

With B23, the optical density stood at 0.22 OD.

The molecule B24 returned an optical density of 0.202 OD.

On to B25, for which the optical density amounted to 0.227 OD.

Regarding B26, the optical density was determined as 0.293 OD.

For B27, the optical density came out at 0.279 OD.

B28 had an optical density of 0.167 OD.

Take B29: the optical density turned out to be 0.163 OD.

B30 gave an optical density of 0.164 OD.

The molecule B31 registered an optical density of 0.2 OD.

On to B32, for which the optical density came out at 0.25 OD.
